Measured values taken from patent publication US20170010270A1 (Chugai, published 2017).

T1: GPC3 peptide, amino acid position 501-530 (SEQ ID NO: 26) (human)
T1 construct: synthetic 30-residue peptide of GPC3
T1 peptide: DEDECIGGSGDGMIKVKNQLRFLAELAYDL

T2: GPC3 peptide, amino acid position 201-230 (SEQ ID NO: 11) (human)
T2 construct: synthetic 30-residue peptide of GPC3
T2 peptide: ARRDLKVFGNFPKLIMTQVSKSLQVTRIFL

T3: GPC3 peptide, amino acid position 281-310 (SEQ ID NO: 15) (human)
T3 construct: synthetic 30-residue peptide of GPC3
T3 peptide: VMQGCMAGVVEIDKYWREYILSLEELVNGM

T4: GPC3 peptide, amino acid position 341-370 (SEQ ID NO: 18) (human)
T4 construct: synthetic 30-residue peptide of GPC3
T4 peptide: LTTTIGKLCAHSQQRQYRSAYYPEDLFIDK

T5: GPC3 peptide, amino acid position 551-580 (SEQ ID NO: 29) (human)
T5 construct: synthetic 30-residue peptide of GPC3
T5 peptide: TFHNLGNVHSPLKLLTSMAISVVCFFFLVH

T6: GPC3 peptide, amino acid position 181-210 (SEQ ID NO: 10) (human)
T6 construct: synthetic 30-residue peptide of GPC3
T6 peptide: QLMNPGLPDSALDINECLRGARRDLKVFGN

T7: GPC3 peptide, amino acid position 481-510 (SEQ ID NO: 25) (human)
T7 construct: synthetic 30-residue peptide of GPC3
T7 peptide: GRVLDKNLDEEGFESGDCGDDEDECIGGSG

T8: GPC3 peptide, amino acid position 261-290 (SEQ ID NO: 14) (human)
T8 construct: synthetic 30-residue peptide of GPC3
T8 peptide: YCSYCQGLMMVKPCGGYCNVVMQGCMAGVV

T9: GPC3 peptide, amino acid position 361-390 (SEQ ID NO: 19) (human)
T9 construct: synthetic 30-residue peptide of GPC3
T9 peptide: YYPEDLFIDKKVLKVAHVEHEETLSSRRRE

B1: GT165 antibody (antibody, IgG1, V domains shown)
VH: QVQLQQSGAELVGPGASVKISCKAFGYTFTNHHINWVKQRPGQGLDWIGYINPYNDYTNYNQKFKGKATLTVDKSSSTAYMELSSLTSEDSAVYYCARSDPAWFAYWGQGTLVTVSA
VL: DIQMTQSPSSLSASLGGKVTITCKASQDINKNIAWYQHKPGKGPRLLIWYTYTLQPGIPSRFSGSGSGRDYSFSISNLEPEDIATYYCLQYDNLPFTFGTGTKLEIKR
B2: GT114 antibody (antibody, IgG1, V domains shown)
VH: DVQLQESGPGLVKPSQSLSLTCTVTGYSITSDSAWNWIRQFPGNKLEWMAYIMYSGITSYNPSLKSRISITRDTAKNQFFLQLNSVTTEDSATYYCSRGYWYFDVWGAGTTVTVSS
VL: QIVLTQSPAIMSASLGEEITLTCSASSSVSYMHWYQQKSGTSPKLLIYSTSILASGVPSRFSGSGSGTFYSLTISSVEAEDAADYYCLQWITYRTFGGGTKLEIKR
B3: GT607 antibody (antibody, IgG1, V domains shown)
VH: EVQLVESGGDVVRPGGSLKLSCAASGFTFSSYGMSWVRQLPDKRLEWVASVGNGGSYRYYPENLKGRFTISRDNTKNTLYLQISGLKSEDTAIYYCARRGAFPYFDVWGAGTTVTVSS
VL: QIVLTQSPAIMSASPGEKVTLACSASSSVTYMHWYQQKSGTSPKRWIYETSKLASGVPPRFSGSGSGTSYSLTISTMEAEDAATYYCQQWSSNPLTFGAGTKLELKR

Columns and labels:
[1] = biological target: T1, GPC3 peptide, amino acid position …; experiment: ELISA on immobilised peptide
Method: (§1) In order to identify more detailed epitopes for the antibodies, the amino acid sequence of GPC3 was divided into peptides of 30 residues containing 10-residue overlaps, and the corresponding peptides were synthesized (SEQ ID NOs: 1 to 29 in Table 2). Each peptide thus synthesized was dissolved at a concentration of 1 mg/mL in dimethyl sulfoxide and then diluted to 1 μg/mL with PBS. The diluted peptide solution was added at 70 μL/well to a 96-well plate and immobilized thereon at room temperature for 1 hour. After removal of unimmobilized peptides, 20% Blocking-one (Nacalai Tesque, Inc.) was added thereto as a blocking buffer solution at 200 μL/well, and the plate was blocked overnight. After removal of the blocking buffer solution, each well was washed with TBS-T three times, and each antibody diluted to 2 μg/mL with a blocking buffer was then added thereto at 70 μL/well. One hour later, the antibody was removed, and each well was washed three times by the addition of TBS-T at 200 μL/well. An HRP-bound anti-mouse antibody was added at 70 μL/well to each well and reacted therewith for 1 hour. After removal of the antibody, each well was washed with 200 μL/well of TBS-T three times, and a chromogenic reagent ABTS Peroxidase Substrate System (1 component, KPL, Kirkegaard & Perry Laboratories, Inc.) was then added thereto at 70 μL/well and reacted at room temperature for […] to develop color. The reaction was terminated by the addition of 1% SDS at 70 μL/well, and the absorbance at 405 nm was measured using a plate reader.

[2] = biological target: T2, GPC3 peptide, amino acid position …; experiment: ELISA on immobilised peptide
Method: as §1

[3] = biological target: T3, GPC3 peptide, amino acid position …; experiment: ELISA on immobilised peptide
Method: as §1

[4] = biological target: T4, GPC3 peptide, amino acid position …; experiment: ELISA on immobilised peptide
Method: as §1

[5] = biological target: T5, GPC3 peptide, amino acid position …; experiment: ELISA on immobilised peptide
Method: as §1

[6] = biological target: T6, GPC3 peptide, amino acid position …; experiment: ELISA on immobilised peptide
Method: as §1

[7] = biological target: T7, GPC3 peptide, amino acid position …; experiment: ELISA on immobilised peptide
Method: as §1

[8] = biological target: T8, GPC3 peptide, amino acid position …; experiment: ELISA on immobilised peptide
Method: as §1

[9] = biological target: T9, GPC3 peptide, amino acid position …; experiment: ELISA on immobilised peptide
Method: as §1

[10] = biological target: T10, AW5, C-terminally His-tagged recombinant product of positions 1 to 357 of GPC3 (human, UniProt P51654 25-357); experiment: Western blot of CHO cell pellets, reducing
T10 construct: Expressed in CHO cells; cell pellets used in reducing Western blot; Construct is stated from position 1; also called AW5 (1-357); not shown: C-terminal His tag
T10 sequence (P51654 25-357): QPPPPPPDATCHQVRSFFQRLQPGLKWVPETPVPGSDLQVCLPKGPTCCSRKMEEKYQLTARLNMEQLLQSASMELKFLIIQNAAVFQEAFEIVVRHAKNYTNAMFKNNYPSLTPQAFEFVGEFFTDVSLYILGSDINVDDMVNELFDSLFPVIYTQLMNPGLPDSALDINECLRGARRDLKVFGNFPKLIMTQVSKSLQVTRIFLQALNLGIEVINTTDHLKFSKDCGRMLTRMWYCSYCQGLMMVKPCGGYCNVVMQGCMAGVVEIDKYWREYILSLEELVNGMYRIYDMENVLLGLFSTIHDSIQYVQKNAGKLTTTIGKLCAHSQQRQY

Row | Binder | binding result [1] | binding result [2] | binding result [3] | binding result [4] | binding result [5] | binding result [6] | binding result [7] | binding result [8] | binding result [9] | binding result [10]
1 | B1 | no binding (tested: 2 µg/mL) | no binding (tested: 2 µg/mL) | no binding (tested: 2 µg/mL) | no binding (tested: 2 µg/mL) | no binding (tested: 2 µg/mL) | no binding (tested: 2 µg/mL) | no binding (tested: 2 µg/mL) | no binding (tested: 2 µg/mL) | no binding (tested: 2 µg/mL) | no binding
2 | B2 | no binding (tested: 2 µg/mL) | no binding (tested: 2 µg/mL) | no binding (tested: 2 µg/mL) | no binding (tested: 2 µg/mL) | no binding (tested: 2 µg/mL) | no binding (tested: 2 µg/mL) | no binding (tested: 2 µg/mL) | no binding (tested: 2 µg/mL) | no binding (tested: 2 µg/mL) | 
3 | B3 | no binding (tested: 2 µg/mL) | no binding (tested: 2 µg/mL) | no binding (tested: 2 µg/mL) | no binding (tested: 2 µg/mL) | no binding (tested: 2 µg/mL) | no binding (tested: 2 µg/mL) | no binding (tested: 2 µg/mL) | no binding (tested: 2 µg/mL) | no binding (tested: 2 µg/mL) | 
